Test results taken from patent publication US20230074436A1 (DENALI THERAPEUTICS, published 2023).

Tests used:
[1] = biological target: T1, human alpha-synuclein monomer (human, UniProt P37840 1-140); test: ELISA, plate coated with the peptide or protein, antibody titrated, anti-rat HRP, A450
Procedure: (§1) 96-well Nunc plates were coated with 1 pg/mL of the indicated synthetic peptide in PBS 50 μL/well overnight. The plates were washed three times with PBST, then blocked with 150 μL of 3% BSA in PBS for 1 hour. Purified antibody was diluted by serial dilution methods, from 10 pg/mL to 0.6 ng/ml, and 50 μL of the antibody solution was added to the peptide-coated wells. The plates were incubated for 1 hour at room temperature, then washed three times with PBST. Secondary detection antibody, goat anti-rat HRP (obtained from Southern Biotech) 1:5,000 diluted in BSA-PBS, was added to a concentration of 50 μL/well. Plates were incubated for one hour and washed three times with PBST. Plates were then developed with 50 μL/well of TMB substrate (obtained from Thermo Fisher) and quenched with 50 μL/well of 1 N sulfuric acid. The signal was quantified on a BioTek® plate reader at A450.

[2] = biological target: T2, alpha-synuclein peptide 95-140 (human); test: as above
T2 construct: synthetic peptide coated on plate
Procedure: as §1

[3] = biological target: T3, alpha-synuclein peptide 61-140 (human); test: as above
T3 construct: synthetic peptide coated on plate
Procedure: as §1

[4] = biological target: T2, alpha-synuclein peptide 95-140; test: peptide ELISA, coated fragment
Procedure: as §1

[5] = biological target: T3, alpha-synuclein peptide 61-140; test: peptide ELISA, coated fragment
Procedure: as §1

rat alpha-synuclein [6] = biological target: T4, rat alpha-synuclein (rat, UniProt P37377 1-140); test: direct ELISA on coated antigen; upper end tied to 22D11 by Table 6 (2.0 nM rat / 0.03 nM human);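 as to Bmax (O.D. at 450 nm): plates coated with recombinant human, mouse or rat alpha-synuclein, purified antibody titrated 10 µg/mL down to 0.6 ng/mL for 1 h, bound antibody detected by anti-rat HRP with TMB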;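 as to EC50: plates coated with recombinant human, mouse or rat alpha-synuclein, purified antibody titrated 10 µg/mL down to 0.6 ng/mL for 1 h, bound antibody detected by anti-rat HRP with TMB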
Procedure: (§2) 96-well Nunc plates were coated with 50 μL of recombinant human, mouse, or rat alpha-synuclein at a concentration of 1 μg/mL in PBS at 4° C. overnight. The plates were then washed three times with PBST and blocked with PBS containing 3% BSA at room temperature for 1 hour. Purified antibody was diluted by serial dilution methods, from 10 μg/mL to 0.6 ng/mL, and 50 μL of the antibody solution was added to the alpha-synuclein-coated wells. The plates were incubated for 1 hour at room temperature, then washed three times with PBST. Secondary detection antibody (goat anti-rat HRP (obtained from Southern Biotech)) was added 50 μL/well, 1:5,000 diluted in BSA-PBS solution. Plates were incubated for 1 hour at room temperature, then washed three times with PBST. Plates were subsequently developed with 50 μL/well of TMB substrate (Thermo Fisher) and quenched with 50 μL/well of 1 N sulfuric acid. The signal was quantified on a BioTek® plate reader at A450.

mouse alpha-synuclein = mouse alpha-synuclein (mouse, UniProt O55042 1-140); test: direct ELISA, plate coated with 1 µg/mL recombinant mouse alpha-synuclein, antibody titrated, anti-rat HRP, A450
Procedure: as §2

beta-synuclein protein = biological target: T5, beta-synuclein protein (human, UniProt Q16143 1-134); test: ELISA on coated synuclein, 1 ug/mL
T5 construct: species read from 'recombinant human alpha-synuclein protein, beta-synuclein protein, and gamma-synuclein protein'
Procedure: (§3) Binding to different synuclein species was tested using a method similar to the ELISA format described above. Briefly, recombinant human alpha-synuclein protein, beta-synuclein protein, and gamma-synuclein protein was coated onto 96-well Nunc plates at 1 μg/mL. The plates were washed with PBST and blocked with 150 μL of 3% BSA in PBS. The serial dilutions of purified antibodies were applied onto the plate, and the associated antibody was detected with goat anti-rat HRP secondary antibody.

gamma-synuclein protein = biological target: T6, gamma-synuclein protein (human, UniProt O76070 1-127); test: ELISA on coated synuclein, 1 ug/mL
T6 construct: species read from 'recombinant human alpha-synuclein protein, beta-synuclein protein, and gamma-synuclein protein'
Procedure: as §3

[7] = biological target: alpha-synuclein phosphorylated at serine 129 (human, UniProt P37840 1-140); test: SPR (Biacore), antibody captured, p129-Syn injected
Procedure: (§4) Anti-mouse Fc antibody (obtained from GE Healthcare) was immobilized on the surface of a CM5 chip (obtained from GE Healthcare) through amine-coupling to reach about 6,000 to 8,000 response units (RU). The surface was activated by injection of a mixture of 1-ethyl-3-(3-dimethylaminopropyl)-carbodiimide (EDC) and N-hydroxysuccinimide (NETS), both obtained from GE Healthcare, for 7 minutes at room temperature. […] Both injections were done at room temperature.
(§5) Purified rat anti alpha-synuclein antibody (10 μg/mL) was injected at room temperature and captured to reach 1,000 to 2,000 RU. […] Sensorgrams were fitted using a 1:1 Langmuir model to estimate kₒₙ and koff.

[8] = biological target: T1, human alpha-synuclein monomer; test: direct ELISA on coated antigen;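 also: plates coated with recombinant human, mouse or rat alpha-synuclein, purified antibody titrated 10 µg/mL down to 0.6 ng/mL for 1 h, bound antibody detected by anti-rat HRP with TMB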
Procedure: as §2

rat alpha-synuclein [9] = biological target: T4, rat alpha-synuclein; test: direct ELISA on coated antigen;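 also: plates coated with recombinant human, mouse or rat alpha-synuclein, purified antibody titrated 10 µg/mL down to 0.6 ng/mL for 1 h, bound antibody detected by anti-rat HRP with TMB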
Procedure: as §2

[10] = biological target: T1, human alpha-synuclein monomer; test: SPR (Biacore), antibody captured, monomer injected, 1:1 fit
Procedure: as §4, §5

rat alpha-synuclein [11] = biological target: T4, rat alpha-synuclein; test: direct ELISA; member tied to this end by the EC50 values of Table 6 (2.0/0.03)
Procedure: as §2

[12] = biological target: T1, human alpha-synuclein monomer; test: direct ELISA, plate coated with 1 µg/mL recombinant human alpha-synuclein, antibody titrated, anti-rat HRP, A450
Procedure: as §2

[13] = biological target: T7, human alpha-synuclein oligomers (human, UniProt P37840 1-140); test: competition ELISA: oligomers titrated in solution against 0.6 nM antibody, free antibody read on aSyn-coated plate
Procedure: To measure the binding affinities of select antibodies toward oligomeric alpha-synuclein protein, purified antibodies were probed with different concentrations of human alpha-synuclein oligomers in solution, and the levels of unbound antibody were measured by ELISA analysis. In this experiment, 0.6 nM (0.1 pg/mL) of purified antibody was dissolved in phosphate-buffered saline (PBS) solution. […] The mixtures were gently shaken at room temperature for 1 hour to reach equilibrium. After that, these samples were transferred to an alpha-synuclein protein-coated ELISA plate, and antibody not bound to antigen in the previous solution was detected by direct ELISA.

[14] = biological target: T8, human alpha-synuclein pre-formed fibrils (human, UniProt P37840 1-140); test: competition ELISA: fibrils titrated in solution against 0.6 nM antibody, free antibody read on aSyn-coated plate
Procedure: Purified antibody was probed with different concentrations of alpha-synuclein fibrils in solution, and the levels of unbound antibody were measured by ELISA analysis. In this experiment, 0.6 nM (0.1 μg/mL) of purified antibody was dissolved in phosphate-buffered saline (PBS) solution. […] The mixtures were gently shaken at room temperature for 1 hour to reach equilibrium. After that, these samples were transferred to an alpha-synuclein protein-coated ELISA plate and incubated for 5 minutes. During this short incubation, antibody that was not associated to antigen in the previous solution could instead bind onto the plate, and thus be quantified using a standard ELISA technique. By this means, it was possible to determine the amount of free antibody in the initial mixture with alpha-synuclein fibrils at indicated concentrations.

[15] = biological target: T1, human alpha-synuclein monomer; test: ELISA, coated human alpha-synuclein
[16] = biological target: alpha-synuclein peptide 1-112 (human); test: peptide ELISA
Procedure: as §1

[17] = biological target: T9, alpha-synuclein peptide 1-61 (human); test: peptide ELISA
T9 construct: synthetic peptide coated on plate
Procedure: as §1

[18] = biological target: T10, alpha-synuclein peptide 1-95 (human); test: peptide ELISA
T10 construct: synthetic peptide coated on plate
Procedure: as §1

[19] = biological target: T7, human alpha-synuclein oligomers; test: SPR; SPR; aSyn oligomers
[20] = biological target: T1, human alpha-synuclein monomer; test: SPR; SPR; aSyn monomers
[21] = biological target: T1, human alpha-synuclein monomer; test: SPR (Biacore), aSyn monomers
Procedure: (§6) Serial 3-fold dilutions of aSyn were injected at a flow rate of 30 μL/min. Each sample was analyzed using a 3-minute association and a 10-minute dissociation. After each injection, the chip was regenerated using 3 M MgCl₂. Binding response was corrected by subtracting the RU from a flow cell capturing an irrelevant IgG at similar density. A 1:1 Languir model of simultaneous fitting of kₒₙ and koff was used for kinetics analysis.

[22] = biological target: T1, human alpha-synuclein monomer; test: KinExA kinetic exclusion assay
[23] = biological target: T8, human alpha-synuclein pre-formed fibrils; test: KinExA kinetic exclusion assay
[24] = biological target: T7, human alpha-synuclein oligomers; test: KinExA kinetic exclusion assay
[25] = biological target: T8, human alpha-synuclein pre-formed fibrils; test: SPR; SPR; aSyn fibrils
[26] = biological target: T1, human alpha-synuclein monomer; test: SPR (Biacore 8K), IgG captured on anti-human Fc, aSyn monomer injected
Procedure: as §6

B1: 22D11 (antibody, rat IgG1, V domains shown)
VH: AVQFVESGGGLVRPKESLKISCTASGFTFTNAAIYWVRQAPGKGLECIARIRTKPNNYATYYADSVRGRFTISRDDSKPMVYLQMNELKTEDTAMYYCAADASRGDYWGQGVMVTVSS
VL: DIQMTQSPSVLSASVGDRVTFSCKASQNINKNLDWYQQKLGEVPKVLIYFTNNLQTGIPSRFSGSGSGTDYTLTISSLQPEDVATYYCYQYTSGFTFGAGTKLELK
notes: also called clone 22D11
EC50 (read off the curve) [1]: ~0.04 mg/L | EC50 (read off the curve) [2]: ~0.04 mg/L | EC50 (read off the curve) [3]: ~0.03 mg/L | antibody concentration at which ELISA is positive [4]: < 40 ng/mL | antibody concentration at which ELISA is positive [5]: < 40 ng/mL | fold higher EC50 for rat alpha-synuclein compared to human alpha-synuclein (rat alpha-synuclein [6]): 66.7 fold | binding result (mouse alpha-synuclein): no binding (tested: 10 µg/ml (log 1)) | binding result (beta-synuclein protein): no binding | binding result (gamma-synuclein protein): no binding | Kd [7]: 42.9 nM | koff [7]: 0.0035 s⁻¹ | kon [7]: 81600 M⁻¹ s⁻¹ | Bmax (O.D. at 450 nm) [8]: 1.2 OD | EC50 [8]: 0.03 nM | Bmax (O.D. at 450 nm) (rat alpha-synuclein [9]): 0.05 OD | EC50 (rat alpha-synuclein [9]): 2 nM | Kd [10]: 18.1 nM | koff [10]: 0.00337 s⁻¹ | kon [10]: 186000 M⁻¹ s⁻¹ | fold higher EC50 for rat than for human alpha-synuclein (rat alpha-synuclein [11]): 66.7 fold | EC50 (read off the curve) [12]: ~0.04 mg/L | IC50 [13]: 15.2 nM | IC50 [14]: 4.53 nM | antibody concentration at which ELISA is positive [15]: < 40 ng/mL | antibody concentration at which ELISA is positive [16]: > 2600 ng/mL | antibody concentration at which ELISA is positive [17]: > 2600 ng/mL | antibody concentration at which ELISA is positive [18]: > 2600 ng/mL

B2: 20H4_HC5_L1_1 (antibody, V domains shown)
VH: EVQLVESGGGLVQPGGSLRLSCAASGFTFSNAAMYWVRQAPGKGLELLARIRTKPNNYATYHADSVKGRFTISRDDSKNTVYLQMNSLRAEDTAVYYCTADMATGDYWGQGTLVTVSS
VL: DIQMTQSPSSLSASVGDRVTITCKASQNINNNLDWYQQKPGKAPKPLIYSTNNLKTGVPSRFSGSGSGTDFTLTISSLQPEDFATYYCYQYKSAWTFGQGTKVEIK
notes: also called 20H4_H5_L1_1; hu20H4
Kd [19]: 0.19 nM | Kd [20]: 0.12 nM | Kd [21]: 0.21 nM | Kd [22]: 0.0157 nM | Kd [23]: 0.000638 nM | Kd [24]: 0.00886 nM | Kd [25]: 0.27 nM | Kd [26]: 0.1 nM
